The text below walks through data of publication PMC6827314, “An aldo-keto reductase with 2-keto-L-gulonate reductase activity functions in L-tartaric acid biosynthesis from vitamin C in Vitis vinifera” (The Journal of Biological Chemistry, 2019).

Substrate in data set [1]: CC(=O)C(=O)O
Briefly: purified protein. As to conditions: 1 mM NADPH, 100 mM HEPES pH 7.5, 37 °C. It is filed as biochemical, Vitis vinifera.

Substrate in data set [2]: O=C(O)C(=O)CO
Briefly: purified protein. It is filed as biochemical, Vitis vinifera. Conditions: 1 mM NADPH, 100 mM HEPES pH 7.5, 37 °C.

Substrate in data set [3]: O=C(O)C(=O)[C@@H](O)[C@H](O)[C@@H](O)CO
Briefly: purified protein. It is filed as biochemical, Vitis vinifera. As to conditions: 1 mM NADPH, 100 mM HEPES pH 7.5, 37 °C.

Substrate in data set [4]: O=CC(=O)O
Briefly: purified protein. It is filed as biochemical, Vitis vinifera. Conditions: 1 mM NADPH, 100 mM HEPES pH 7.5, 37 °C.

Data set [5] concerns the molecule itself. In words: crystal structure; ligand-free Vv2KGR, space group P2(1), four subunits (chains A-D) in the asymmetric unit, 1.58 Å; crystals from 1.26 M ammonium sulfate, 100 mM sodium acetate/acetic acid pH 4.5, 200 mM NaCl, 16 °C; oligomeric interface analysed with PDBePISA.

B1: Vitis vinifera 2-keto-L-gulonate reductase (Vv2KGR) (enzyme, UniProt A5CAL1 1-313, looked up)
chain: MESIGVLLTCPMNPYLEQELDKRFKLFRFWDFPSANDLFREHSNSIRAVVGNSFIGADAQMIEALPKMEIVSSFSVGLDKIDLVRCKEKGIRVTNTPDVLTEDVADLALALILATLRRICESDRYVRSGSWKKGDFKLTTKFTGKSVGIIGLGRIGSAIAKRAEGFSCPISYHSRTEKPGTNYKYYPSVVELASNCQILVVACALTPETRHIINREVINALGPKGVVINIGRGLHVDEPELVSALVEGRLGGAGLDVFENEPNVPEELLAMDNVVLLPHVGSGTVETRKDMADLVLGNLEAHFLNKPLLTPVV
notes: Vv2KGR, Vitis vinifera cv; The forward primer carries an ATG of the NdeI site directly before the gene's own ATG; also called aldo-keto reductase; apo-Vv2KGR; source: E. coli BL21(DE3) pLysS-T1, pET14b, purified (HisTrap FF Crude, HiTrap Q HP, dialysis); not shown: His tag (from the vector pET14b)
As to B1, the Km in “purified protein [1]” is 1371 µM; in the data set “purified protein [2]” it was 96 µM; in the data set “purified protein [3]” it was 700 µM; in the data set “purified protein [4]”, 44 µM. For the same protein, the Vmax in the data set “purified protein [2]” is 6.29 µmol/min/mg; in “purified protein [3]”, 7.54 µmol/min/mg; in the data set “purified protein [4]”, 13.8 µmol/min/mg. The kcat came out at 6.97 s⁻¹ in the data set “purified protein [2]”, 4.18 s⁻¹ in the data set “purified protein [3]” and 38.3 s⁻¹ in the data set “purified protein [4]”. Moreover, the “stoichiometry N” value in data set [5] was 2.

As usually defined, the Km is the concentration of substrate that gives half-maximal velocity. The Vmax is the top rate of the reaction or transport when substrate is in excess. As usually defined, the kcat is the number of substrate molecules converted per active site and unit of time at saturation. A word on the stoichiometry N: it is the number of molecules, sites or subunits per partner or assembly.
